Tests used:
[1] = tested on: normal human lung fibroblasts (NHLF); assay: Lactate dehydrogenase (LDH) release assay, NHLF; assay type: cell-based; details: 32 nM, 72 hours
Procedure: Both cell lines were cultured in HG-DMEM (ThermoFisher Scientific Catalog No. 11965-092) supplemented with 20 mM HEPES (4-(2-hydroxyethyl)-1-piperazineethanesulfonic acid), 4 mM L-glutamine, 1 mM sodium pyruvate, 1× non-essential amino acids, 50 μg/ml gentamicin and 10% fetal bovine serum (FBS). H460 and NHLF cells were seeded into 96-well plates at 5,000 cells per well, following a 2-day FBS deprivation, and released by culture in complete culture medium containing 10% FBS. […] By 72 hours post treatment, cell death was determined by observing cell morphology using a phase contrast microscope at 150×.
The cell death was also quantified using lactate dehydrogenase (LDH) releasing assay. For the LDH assay, a mixture of a 35 μl aliquot of culture medium and 17.5 μl of substrate, enzyme, and dye solutions (Sigma, St. Louis, Mo., U.S.A.) was incubated at room temperature for 30 minutes, and absorbance was measured at 490 nm using a plate reader (ELx805; BioTek, Winooski, Vt., U.S.A.).

[2] = tested on: pancreatic ductular adenocarcinoma (PDAC) xenograft; assay: Patient-derived xenograft (PDx) model of PDAC, primary tumor growth; assay type: in vivo, mouse; details: 2.5 mg/kg i.v., by day 35, vs SNS622 or non-treated control
Text: Pancreatic ductular adenocarcinoma (PDAC) is a highly lethal malignancy with limited treatment options. HAAH is a cell surface protein that is highly expressed in […] of PDACs. The specificity of SNS622-MC-DM1 was next examined in the patient-derived xenograft (PDx) mouse model PDAC. The patient-derived xenograft (PDx) murine model was established by using surgically resected PDAC (from Rhode Island Hospital, Providence, R.I., U.S.A.). Five to six-week-old female Nod Scid Gamma (NSG) mice were employed. The surgically resected tumor tissue was diced into 5×5×5 mm^3 pieces, and a piece of tumor tissue was subcutaneously transplanted under anesthesia with isoflurane into each mouse via a small incision in the lower back, A buprenorphine analgesic was injected to each mouse for 3 days after surgery. The SNS622 antibody or the SNS622-MC-DM1 ADC was administered at a dose of 2.5 mg/kg by intravenous tail-vein injection every two weeks starting at day 17 post-surgery. Body weight and tumor size were measured twice a week and tumor volume was calculated using the modified ellipsoid formula (0.5×length×width^2). To determine the effect of SNS622-MC-DM1 on lung metastasis, all lung tissues were immersed in Bouin's fixative solution (Sigma-Aldrich, St. Louis, Mo., U.S.A.; catalog No, HT10132) and metastatic nodules on the surface of the lungs were counted. […]

In the case of “SNS622-MC-DM1: SNS622 anti-HAAH monoclonal antibody conjugated to mertansine (DM1) by the non-cleavable linker maleimidocaproyl (MC)”, the “Increase in LDH release” value [1] is reported as “did not result in a detectable increase in LDH release” and the PDAC tumor growth [2] is reported as “significantly reduced PDAC tumor growth”.

Reference: patent US20200390902A1, “Antibody-Drug Conjugates Targeted at Human Aspartyl-(Asparaginyl)-B-Hydroxylase (HAAH)” (Panacea Pharmaceuticals, Inc., priority 2017, published 2020)
